Literature values, collected in article PMC7289715.

Biological target: Spike protein (SARS-CoV-2) (UniProt P0DTC2)

**Q.** Which Kd does the source give for CD147 (from UniProt P35613) here?
**A.** Its Kd is 185 nM.
